Values joined by “and” are separate entries in the source; they are usually repeats but may differ in a detail not shown here. Equal entries are not always repeated.

Data set [1] concerns the molecule itself. As to the kind of experiment: mass photometry; label-free single molecules landing on glass slides; Buffer 1 (Tris-HCl 20 mM, NaCl 50 mM, pH 7.5); nanomolar protein concentrations, increasing series; protomers to rings.
The target of another data set is T1, RAD52(209) (Homo sapiens, UniProt P43351 1-209).
T1 sequence: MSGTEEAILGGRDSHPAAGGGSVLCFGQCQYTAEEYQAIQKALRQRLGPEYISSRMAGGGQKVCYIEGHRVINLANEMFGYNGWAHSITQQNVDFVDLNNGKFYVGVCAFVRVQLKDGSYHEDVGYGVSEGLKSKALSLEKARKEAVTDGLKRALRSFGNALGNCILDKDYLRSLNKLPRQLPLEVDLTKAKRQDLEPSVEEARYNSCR
As to the kind of experiment: EMSA (native annealing gel); 50-200 nM protein: annealed product runs at protein-free level; at 1 uM a ring band contains both strands (annealed or not unclear); EMSA: 25 mM Tris-acetate pH 7.5, 2 mM Mg(OAc)2, 1 mM DTT, 10 nM ssDNA, 25 C 10 min or 37 C 5 min; mass photometry: 20 mM Tris-HCl pH 7.5, 50 mM NaCl. The note with it: protein: recombinant; tags: His tag (pET-15b, Ni-NTA); chain copies: 11; label: 3'-ALEXA488 (Methods: ATTO488) on 48 nt; 3'-ATTO680 on 60 nt; 3' overhang 12 nt (T12) on strand 2.

B1: truncated RAD52(209) (domain or fragment, human, UniProt P43351 1-209, looked up)
chain: T1 sequence
notes: expected monomer molecular weight printed as 25.3 kDa; No removal of the tag is described; Plasmid was a gift from S.C; West; also called C-terminally truncated RAD52; source: E. coli BL21(DE3) with pRARE, purified (His-trap Ni-NTA, Hiload 16/600 superdex)
A word on the stoichiometry N: it is the number of molecules, sites or subunits per partner or assembly. Consider B1, for which the “stoichiometry N” value in data set [1] came to 11 protomers per ring.

B2: full-length human RAD52 (natural protein, UniProt P43351 1-418, looked up)
chain: MSGTEEAILGGRDSHPAAGGGSVLCFGQCQYTAEEYQAIQKALRQRLGPEYISSRMAGGGQKVCYIEGHRVINLANEMFGYNGWAHSITQQNVDFVDLNNGKFYVGVCAFVRVQLKDGSYHEDVGYGVSEGLKSKALSLEKARKEAVTDGLKRALRSFGNALGNCILDKDYLRSLNKLPRQLPLEVDLTKAKRQDLEPSVEEARYNSCRPNMALGHPQLQQVTSPSRPSHAVIPADQDCSSRSLSSSAVESEATHQRKLRQKQLQQQFRERMEKQQVRVSTPSAEKSEAAPPAPPVTHSTPVTVSEPLLEKDFLAGVTQELIKTLEDNSEKWAVTPDAGDGVVKPSSRADPAQTSDTLALNNQMVTQNRTPHSVCHQKPQAKSGSWDLQTYSADQRTTGNWESHRKSQDMKKRKYDPS
notes: RAD52, human, full length; expected monomer molecular weight printed as 48.4 kDa; No removal of the tag is described; Plasmid was a gift from W. Kagawa; source: E. coli BL21(DE3) with pRARE, purified (His-trap Ni-NTA, Hiload 16/600 superdex)
For the molecule B2, the “stoichiometry N” value in data set [1] is 7 protomers per ring to 13 protomers per ring (2×) and 10 protomers per ring and 10.6 protomers per ring.

B3: 48/60 nt annealed product (dsDNA)
DNA 1: GCAATTAAGCTCTAAGCCATCCGCAAAAATGACCTCTTATCAAAAGGA
DNA 2: TCCTTTTGATAAGAGGTCATTTTTGCGGATGGCTTAGAGCTTAATTGCTTTTTTTTTTTT
With B3, the binding result in the data set with RAD52(209) is “no binding”.
